# Publication PMC5600358
# B1: ds59 (Pu59/Py59) (dsDNA)
# DNA 1: GGCGGCGCGGAGGGGCGGGCGCGGGAGGAAGGGGGCGGGACGGGGCTGTGGTGCCTGT
# DNA 2: ACAGGCACCACAGCCCCGTCCCGCCCCCTTCCTCCCGCGCCCGCCCCTCCGCGCCGCC
# B2: Pu59 (G-strand) (structured_DNA)
# DNA: B1 DNA 1
# B3: Py59 (C-strand) (ssDNA)
# DNA: B1 DNA 2
# Biological target: WT1 ZF-KTS (zinc finger domain, -KTS isoform) (Homo sapiens (cDNA from HL-60 cells), UniProt P19544 312-407+411-449, internal_change)
# Assay: EMSA
row,Binder,binding result
1,B1,binds
2,B2,no binding
3,B3,no binding
